Measurements reported in patent US20090081786A1 (published 2009).
Each block holds one binder with its values, some of them ahead of it.

B3: annexin V (other)
chain: AQVLRGTVTDFPGFDERADAETLRKAMKGLGTDEESILTLLTSRSNAQRQEISAAFKTLFGRDLLDDLKSELTGKFEKLIVALMKPSRLYDAYELKHALKGAGTNEKVLTEIIASRTPEELRAIKQVYEEEYGSSLEDDVVGDTSGYYQRMLVVLLQANRDPDAGIDEAQVEQDAQALFQAGELKWGTDEEKFITIFGTRSVSHLRKVFDKYMTISGFQIEETIDRETSGNLEQLLLAVVKSIRSIPAYLAETLYYAMKGAGTDDHTLIRVMVSRSEIDLFNIRKEFRKNFATSLYSMIKGDTSGDYKKALLLLCGEDD
notes: 10 µg annexin V was run on SDS-PAGE, blotted to nitrocellulose and used as the immobilized partner in the overlay assay; also called immobilized annexin V

How the values were obtained:
annexin V [1] = biological target: B3; experiment: overlay assay on blotted annexin V, FIG. 1D
Method: (§1) The strips were incubated with blocking buffer (50 mM Tris pH 7.5, 200 mM NaCl, 3% bovine serum albumin, 0.1% PEG20). […] The strips where then washed with wash buffer (50 mM Tris pH 7.5, 200 mM NaCl, 0.1% PEG20, 12 mM β-mercaptoethanol), and then incubated with fixative (0.2% formaldehyde in PBS) and neutralizing solution (0.2M glycine in PBS) at room temperature 20 min each. After washing with buffer, the strips were probed with antibodies according to the overlay protein, and resulting bands were visualized using ECL Western blotting.

annexin V [2] = biological target: B3; experiment: overlay assay on annexin V blotted to nitrocellulose, FIG. 1D
Method: as §1

full-length δ-PKC = biological target: T1, full-length δ-PKC (Mus musculus (Mouse), UniProt P28867 1-674); experiment: overlay assay on blotted annexin V (figure legend, FIGS. 1A-D)
T1 construct: Full-length δ-PKC in the overlay assay; also called δ-protein kinase C; delta PKC
Method: as §1

annexin V [3] = biological target: B3; experiment: as above
Method: as §1

Binder: B3
binding result (full-length δ-PKC): binds

B4: myelin basic protein (MBP)-delta V1 PKC fusion protein (other)
chain: MAPFLRISFNSYELGSLQAEDDASQPFCAVKMKEALTTDRGKTLVQKKPTMYPEWKSTFDAHIYEGRVIQIVLMRAAEDPMSEVTVGVSVLAERCKKNNGKAEFWLDLQPQAKVLMCVQYFLEDGDCKQSMRSEEEAMFPTMNRRGAIKQAKIHYIKNHE
notes: Used as crude bacterial cell lysate (30 µg) containing the fusion protein; also called MBP-δV1; δ-V1; not shown: fusion tag printed as 'myelin basic protein (MBP)'
binding result (annexin V [3]): binds

Other lines, results leading:

binding result (annexin V [1]): binds
B1: glutathione-S-transferase-delta V5 PKC fusion protein (other)
chain: PKVKSPSDYSNFDPEFLNEKPQLSFSDKNLIDSMDQEAFHGFSFVNPKFEQFLDI
notes: Used as crude bacterial cell lysate (30 µg) containing the fusion protein; also called GST-δV5; δ-V5; not shown: glutathione-S-transferase (GST) fusion tag

binding result (annexin V [2]): no binding
B2: ε-V1 (V1 region of ε-PKC) (other)
chain: MVVFNGLLKIKICEAVSLKPTAWSLRHAVGPRPQTFLLDPYIALNVDDSRIGQTATKQKTNSPAWHDEFVTDVCNGRKIELAVFHDAPIGYDDFVANCTIQFEELLQNGSRHFEDWIDLEPEGKVYVIIDLSGSSGEAPKDNEE
